Experiments:
[1] = molecular target: T1, human LTBP3-proTGFβ1 complex (human, UniProt Q9NS15 44-1303; P01137 30-390, limits assumed); assay: SPR Biacore 8K, Fab over captured antigen
T1 construct: Exemplary entries; also called Hu LTBP3-proTGFβ1; huLTBP3 proTGFb1
Summary of the method: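 Biotinylated antigen complexes captured on a Biotin CAPture chip (10 nM, ~200 RU), with Fab fragments injected as analyte by multi-cycle kinetics and regeneration between cycles. Runs in HBS-EP+ pH 7.4, 0 nM analyte as reference; ka, kd and KD from a global 1:1 binding fit.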

[2] = molecular target: T2, human LTBP1-proTGFβ1 complex (human, UniProt Q14766 347-1721; P01137 30-390); assay: SPR Biacore 8K, Fab over captured antigen; mean of 4
T2 construct: Large latent complex: one presenting molecule disulfide-linked to a proTGFβ1 dimer; also called Hu LTBP1-proTGFβ1; huLTBP1 proTGFβ1
Description: (§1) A Biacore 8K system was employed to determine the monovalent binding affinity and the kinetic parameters for antigen binding of test antibodies. Association and dissociation kinetics of Fab fragments SR-AB42-HuFab, SR-AB63-HuFab and SR-AB43-HuFab to antigen complexes were measured, and resulting ka, kd and KD are provided below. Briefly, the binding kinetics were evaluated by surface plasmon resonance using Biacore 8K (GE Healthcare). Biotinylated capture antigens were immobilized to the chip (10 nM, ˜200 RU loading). A Biotin CAPture sensor chip was used to capture the biotinylated antigens. […] 0 nM was used as a reference. […] 0 nM was used as a reference. Multi-cycle kinetics was employed where each analyte concentration was injected in a separate cycle and the sensor chip surface was regenerated after each cycle. A11 the assays were carried out in freshly prepared 1× HBS-EP+ buffer (10 mM HEPES, 150 mM NaCl, 3 mM EDTA, 0.05% Tween20, pH 7.4). Data were fit globally to a 1:1 binding model to obtain the kinetic parameters. The sensorgram for 0 nM analyte concentration was used as reference.

[3] = molecular target: T3, human GARP-proTGFβ1 complex (human, UniProt Q14392 18-627; P01137 30-390, limits assumed); assay: SPR Biacore 8K, Fab up to 100 nM over captured antigen
T3 construct: Exemplary entries; also called Hu GARP-proTGFβ1; huGARP proTGFb1
T3 sequence (Q14392 18-627 limits assumed, chain 1 of 2): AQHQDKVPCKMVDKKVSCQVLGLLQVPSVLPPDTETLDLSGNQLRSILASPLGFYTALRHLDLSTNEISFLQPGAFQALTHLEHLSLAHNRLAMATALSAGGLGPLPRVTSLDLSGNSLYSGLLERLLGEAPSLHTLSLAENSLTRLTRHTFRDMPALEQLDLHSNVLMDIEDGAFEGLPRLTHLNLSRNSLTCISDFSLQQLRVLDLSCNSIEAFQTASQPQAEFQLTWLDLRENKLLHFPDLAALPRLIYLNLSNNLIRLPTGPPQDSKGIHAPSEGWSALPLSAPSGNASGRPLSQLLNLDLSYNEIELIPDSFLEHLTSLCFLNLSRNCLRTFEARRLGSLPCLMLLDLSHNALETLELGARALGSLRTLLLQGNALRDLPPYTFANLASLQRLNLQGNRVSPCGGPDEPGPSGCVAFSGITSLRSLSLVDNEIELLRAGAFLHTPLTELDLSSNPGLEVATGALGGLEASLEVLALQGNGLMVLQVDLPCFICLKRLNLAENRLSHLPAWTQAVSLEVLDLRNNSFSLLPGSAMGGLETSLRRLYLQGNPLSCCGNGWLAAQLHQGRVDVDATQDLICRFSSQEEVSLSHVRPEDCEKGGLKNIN
T3 sequence (P01137 30-390 limits assumed, chain 2 of 2): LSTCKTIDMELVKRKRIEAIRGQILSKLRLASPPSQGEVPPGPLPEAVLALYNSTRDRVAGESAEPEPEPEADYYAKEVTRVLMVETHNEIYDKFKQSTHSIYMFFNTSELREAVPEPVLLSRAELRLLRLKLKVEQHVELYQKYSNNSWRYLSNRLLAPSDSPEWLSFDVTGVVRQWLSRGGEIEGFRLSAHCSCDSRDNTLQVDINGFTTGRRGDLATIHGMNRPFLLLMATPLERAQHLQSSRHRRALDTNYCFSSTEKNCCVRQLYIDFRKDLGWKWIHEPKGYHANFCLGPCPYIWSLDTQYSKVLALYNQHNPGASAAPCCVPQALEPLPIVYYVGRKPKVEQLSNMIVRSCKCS
Description: as §1

[4] = molecular target: T4, human LRRC33-proTGFβ1 complex (human, UniProt Q86YC3 19-650; P01137 30-390, limits assumed); assay: as above
T4 construct: Exemplary entries; also called huLRRC33 proTGFb1; HuLRRC33-ProTGFb1
Description: as §1

[5] = molecular target: T2, human LTBP1-proTGFβ1 complex; assay: SPR (Biacore 8K), biotinylated antigen captured, Fab as analyte, 1:1 fit (Example 9); table beside the sensorgrams
Description: as §1

[6] = molecular target: T1, human LTBP3-proTGFβ1 complex; assay: as above
Description: as §1

[7] = molecular target: T2, human LTBP1-proTGFβ1 complex; assay: SPR Biacore 8K, monovalent Fab
Description: (§2) Data collection rate was set to 10 Hz and the Biotin CAPture step was performed for 300 seconds with a flow rate of 2 μL/minute. The Biotin CAPture reagent was used after a 1:5 dilution in 1× Biacore running buffer. Biotinylated ligands (the various complexes of TGFβ1) were utilized at a concentration of 10 nM and were immobilized to the sensor chip for 180 seconds with a flow rate of 10 μL/minute. […] Analyte contact time was 120 seconds and the dissociation time was 900 seconds. The regeneration cycle utilized was 120 seconds with a flow rate of 10 μL/minute.
(§3) The evaluation method used was “multi-cycle affinity using capture” and a 1:1 binding model was used. […] Global fits were utilized for every KD determination.
(§4) The monovalent half-binding-time (T^{1/2}) value was at least 45 minutes for each of hLTBP1-proTGFβ1 and hLTBP3-proTGFβ1 complexes. The monovalent T^{1/2} value was less than 5 minutes for each of hGARP-proTGFβ1 and hLRRC33-proTGFβ1 complexes, as measured by SPR.

[8] = molecular target: T1, human LTBP3-proTGFβ1 complex; assay: SPR Biacore 8K, monovalent Fab
Description: as §2, §3, §4

[9] = molecular target: T5, mouse LTBP1-proTGFβ1 complex (mouse, UniProt Q8CG19 339-1712; P04202 30-390); assay: SPR Biacore 8K, monovalent Fab
T5 construct: Exemplary entries; In the cell assays expressed from mouse LTBP1S and mouse proTGFb1 plasmids in LN229 cells; also called Mo LTBP1-proTGFβ1; MuLTBP1-ProTGFb1
T5 sequence (Q8CG19 339-1712 limits assumed, chain 1 of 2): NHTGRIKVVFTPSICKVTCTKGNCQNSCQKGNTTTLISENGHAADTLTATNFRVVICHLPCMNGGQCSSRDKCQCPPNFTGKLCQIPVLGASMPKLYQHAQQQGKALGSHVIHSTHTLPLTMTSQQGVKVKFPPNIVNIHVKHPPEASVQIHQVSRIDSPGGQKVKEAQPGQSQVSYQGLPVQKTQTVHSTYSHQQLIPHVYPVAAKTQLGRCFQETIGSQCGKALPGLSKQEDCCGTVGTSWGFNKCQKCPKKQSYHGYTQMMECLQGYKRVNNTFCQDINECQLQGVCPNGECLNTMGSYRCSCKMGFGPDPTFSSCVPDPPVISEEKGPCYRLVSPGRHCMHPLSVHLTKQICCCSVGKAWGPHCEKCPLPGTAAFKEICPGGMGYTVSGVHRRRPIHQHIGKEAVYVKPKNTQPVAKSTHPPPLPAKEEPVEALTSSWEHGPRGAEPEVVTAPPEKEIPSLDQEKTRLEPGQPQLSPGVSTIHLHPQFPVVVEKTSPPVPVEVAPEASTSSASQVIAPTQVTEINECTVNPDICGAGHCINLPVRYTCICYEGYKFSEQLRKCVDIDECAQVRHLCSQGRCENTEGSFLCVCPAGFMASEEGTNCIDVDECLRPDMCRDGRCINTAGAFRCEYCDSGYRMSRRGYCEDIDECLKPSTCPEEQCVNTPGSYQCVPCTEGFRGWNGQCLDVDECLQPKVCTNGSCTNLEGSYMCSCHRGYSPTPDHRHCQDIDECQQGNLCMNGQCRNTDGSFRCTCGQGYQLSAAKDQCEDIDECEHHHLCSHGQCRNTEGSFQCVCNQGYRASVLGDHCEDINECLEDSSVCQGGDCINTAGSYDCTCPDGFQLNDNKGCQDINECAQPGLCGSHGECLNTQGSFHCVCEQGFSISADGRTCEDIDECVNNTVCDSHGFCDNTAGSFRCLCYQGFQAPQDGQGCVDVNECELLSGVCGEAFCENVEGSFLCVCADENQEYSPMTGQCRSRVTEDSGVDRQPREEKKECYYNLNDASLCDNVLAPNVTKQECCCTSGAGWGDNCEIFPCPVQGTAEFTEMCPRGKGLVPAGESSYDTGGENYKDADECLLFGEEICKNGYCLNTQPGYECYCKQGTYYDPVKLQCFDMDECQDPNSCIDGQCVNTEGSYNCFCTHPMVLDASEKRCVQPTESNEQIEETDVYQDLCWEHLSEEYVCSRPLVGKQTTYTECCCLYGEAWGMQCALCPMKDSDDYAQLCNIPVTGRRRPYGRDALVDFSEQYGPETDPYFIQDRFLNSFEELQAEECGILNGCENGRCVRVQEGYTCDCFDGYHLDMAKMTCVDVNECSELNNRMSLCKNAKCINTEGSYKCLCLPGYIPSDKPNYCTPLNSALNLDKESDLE
T5 sequence (P04202 30-390 limits assumed, chain 2 of 2): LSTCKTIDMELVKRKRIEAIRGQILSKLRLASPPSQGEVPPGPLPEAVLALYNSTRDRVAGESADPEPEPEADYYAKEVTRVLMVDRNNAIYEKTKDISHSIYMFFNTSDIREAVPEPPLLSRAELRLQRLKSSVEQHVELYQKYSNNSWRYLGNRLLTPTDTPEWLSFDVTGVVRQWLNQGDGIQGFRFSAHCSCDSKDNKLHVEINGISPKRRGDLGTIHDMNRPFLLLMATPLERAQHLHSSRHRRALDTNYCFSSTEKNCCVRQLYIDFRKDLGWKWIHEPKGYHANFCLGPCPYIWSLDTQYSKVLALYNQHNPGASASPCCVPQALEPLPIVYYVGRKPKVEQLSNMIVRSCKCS
Description: as §2, §3, §4

[10] = molecular target: T6, mouse LTBP3-proTGFβ1 complex (mouse, UniProt Q61810 41-1245; P04202 30-390, limits assumed); assay: SPR Biacore 8K, monovalent Fab
T6 construct: Exemplary entries; also called Mo LTBP3-proTGFβ1; Murine LTBP3 proTGFb1
T6 sequence (Q61810 other isoform, or with tags, fused parts or gaps limits assumed, chain 1 of 2): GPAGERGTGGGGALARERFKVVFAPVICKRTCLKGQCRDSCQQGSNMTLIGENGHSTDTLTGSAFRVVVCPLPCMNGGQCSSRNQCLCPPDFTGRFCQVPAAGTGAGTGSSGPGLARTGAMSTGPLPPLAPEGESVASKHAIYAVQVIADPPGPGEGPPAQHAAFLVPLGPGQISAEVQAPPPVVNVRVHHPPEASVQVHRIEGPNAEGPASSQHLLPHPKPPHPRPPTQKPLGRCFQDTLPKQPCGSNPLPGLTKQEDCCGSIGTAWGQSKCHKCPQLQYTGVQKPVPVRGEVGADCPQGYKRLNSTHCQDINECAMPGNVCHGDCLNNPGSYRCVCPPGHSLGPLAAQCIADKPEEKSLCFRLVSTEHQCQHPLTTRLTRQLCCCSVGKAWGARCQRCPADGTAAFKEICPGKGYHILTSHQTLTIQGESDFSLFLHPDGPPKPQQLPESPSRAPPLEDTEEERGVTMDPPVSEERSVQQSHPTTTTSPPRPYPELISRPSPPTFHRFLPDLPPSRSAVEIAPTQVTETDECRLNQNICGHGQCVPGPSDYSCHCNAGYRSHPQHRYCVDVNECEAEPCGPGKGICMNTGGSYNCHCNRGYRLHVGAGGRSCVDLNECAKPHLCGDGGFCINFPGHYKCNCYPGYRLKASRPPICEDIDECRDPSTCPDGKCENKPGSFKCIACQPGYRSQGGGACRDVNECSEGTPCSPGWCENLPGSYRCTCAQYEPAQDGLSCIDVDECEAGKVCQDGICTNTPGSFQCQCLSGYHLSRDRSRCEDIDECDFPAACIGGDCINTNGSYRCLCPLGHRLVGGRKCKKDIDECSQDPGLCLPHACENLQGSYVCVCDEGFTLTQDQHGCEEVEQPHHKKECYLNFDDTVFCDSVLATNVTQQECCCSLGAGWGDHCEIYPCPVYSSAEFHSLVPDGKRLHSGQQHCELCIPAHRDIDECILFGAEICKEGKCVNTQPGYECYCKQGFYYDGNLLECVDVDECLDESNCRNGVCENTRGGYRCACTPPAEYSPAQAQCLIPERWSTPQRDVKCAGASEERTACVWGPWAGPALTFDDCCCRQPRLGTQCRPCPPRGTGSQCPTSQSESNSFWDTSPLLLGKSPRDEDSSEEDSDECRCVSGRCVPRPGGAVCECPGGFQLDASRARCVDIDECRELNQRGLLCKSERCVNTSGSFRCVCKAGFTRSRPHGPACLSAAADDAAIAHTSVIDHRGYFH
T6 sequence (P04202 30-390 limits assumed, chain 2 of 2): as the sequence (P04202 30-390 limits assumed, chain 2 of 2) above
Description: as §2, §3, §4

[11] = molecular target: T3, human GARP-proTGFβ1 complex; assay: SPR Biacore 8K, monovalent Fab
Description: as §2, §3, §4

[12] = molecular target: T4, human LRRC33-proTGFβ1 complex; assay: SPR Biacore 8K, monovalent Fab
Description: as §2, §3, §4

[13] = molecular target: T7, mouse GARP-proTGFβ1 complex (mouse, UniProt G3XA59 18-628; P04202 30-390, limits assumed); assay: SPR Biacore 8K, monovalent Fab
T7 construct: Exemplary entries; also called MuGARP-ProTGFb1; Mu GARP-ProTGFβ1
Description: as §2, §3, §4

[14] = molecular target: T8, mouse LRRC33-proTGFβ1 complex (mouse, UniProt Q8BMT4 20-651, limits assumed); assay: SPR Biacore 8K, monovalent Fab
T8 construct: also called MuLRRC33-ProTGFb1; Mu LRRC33-ProTGFβ1
T8 sequence (Q8BMT4 20-651 limits assumed, chain 1 of 2): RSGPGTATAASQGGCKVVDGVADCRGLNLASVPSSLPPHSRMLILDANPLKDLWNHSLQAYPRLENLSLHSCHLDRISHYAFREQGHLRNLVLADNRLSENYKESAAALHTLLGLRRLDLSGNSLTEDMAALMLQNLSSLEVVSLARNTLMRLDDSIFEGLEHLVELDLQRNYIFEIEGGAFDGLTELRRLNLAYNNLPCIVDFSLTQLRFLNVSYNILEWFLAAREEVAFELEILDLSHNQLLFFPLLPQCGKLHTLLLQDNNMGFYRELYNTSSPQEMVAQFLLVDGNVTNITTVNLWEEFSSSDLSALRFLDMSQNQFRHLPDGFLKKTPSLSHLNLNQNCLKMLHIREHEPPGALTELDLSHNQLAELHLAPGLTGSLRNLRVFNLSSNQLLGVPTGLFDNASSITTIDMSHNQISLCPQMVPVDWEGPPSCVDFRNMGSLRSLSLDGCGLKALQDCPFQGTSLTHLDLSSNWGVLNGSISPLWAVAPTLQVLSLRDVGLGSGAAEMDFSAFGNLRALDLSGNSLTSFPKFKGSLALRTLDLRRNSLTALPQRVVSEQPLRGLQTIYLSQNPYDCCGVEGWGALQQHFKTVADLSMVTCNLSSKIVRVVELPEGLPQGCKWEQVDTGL
T8 sequence (chain, as listed by the source limits assumed, chain 2 of 2): as the sequence (P04202 30-390 limits assumed, chain 2 of 2) above
Description: as §2, §3, §4

[15] = molecular target: T2, human LTBP1-proTGFβ1 complex; assay: SPR Biacore 8K, Fab over captured antigen; mean of 5
Description: as §1

[16] = molecular target: T6, mouse LTBP3-proTGFβ1 complex; assay: SPR Biacore 8K, Fab over captured antigen; mean of 2
Description: as §1

[17] = molecular target: T2, human LTBP1-proTGFβ1 complex; assay: SPR Biacore 8K, Fab over captured antigen, Rmax fixed
Description: (§5) These experiments were performed using the Biacore 8K using the method “multi-cycle kinetics/affinity using Biotin CAPture kit.”
as §2, §3

[18] = molecular target: T1, human LTBP3-proTGFβ1 complex; assay: as above
Description: as §5, §2, §3

[19] = molecular target: T5, mouse LTBP1-proTGFβ1 complex; assay: as above
Description: as §5, §2, §3

[20] = molecular target: T6, mouse LTBP3-proTGFβ1 complex; assay: as above
Description: as §5, §2, §3

[21] = molecular target: T3, human GARP-proTGFβ1 complex; assay: as above
Description: as §5, §2, §3

[22] = molecular target: T4, human LRRC33-proTGFβ1 complex; assay: as above
Description: as §5, §2, §3

[23] = molecular target: T7, mouse GARP-proTGFβ1 complex; assay: as above
Description: as §5, §2, §3

[24] = molecular target: T8, mouse LRRC33-proTGFβ1 complex; assay: as above
Description: as §5, §2, §3

B1: SR-AB63-HuFab (Fab, V domains shown)
VH: QLQLQESGPGLVKPSETLSLTCTVSGGSIRSSSYYWGWIRQPPGKGLEWIGSISYSATTYYNPSLKSRVTISVDTSKNQFSLKLSSVTAADTAVYYCAGDPSYDSIAGMQVWGQGTTVTVSS
VL: DIQLTQSPSSLSASVGDRVTITCRASQSISSYLNWYQQKPGKAPKLLIYAASNLQSGVPSRFSGSGSGTDFTLTISSLQPEDFATYYCQQSFDWPLTFGGGTKVEIK
notes: Human Fab
Kd [1]: 0.127 nM | koff [1]: 4.99e-05 s⁻¹ | kon [1]: 394000 M⁻¹ s⁻¹ | Kd [2]: 0.000103 nM | koff [2]: 3.82e-08 s⁻¹ | kon [2]: 371000 M⁻¹ s⁻¹ | Kd [3]: 349 nM | koff [3]: 0.00093 s⁻¹ | kon [3]: 2660 M⁻¹ s⁻¹ | Kd [4]: 216 nM | koff [4]: 0.00108 s⁻¹ | kon [4]: 5000 M⁻¹ s⁻¹ | Kd [5]: 0.03 nM | Kd [6]: 0.1 nM

B2: SR-AB42-HuFab (Fab, V domains shown)
VH: QVQLVESGGGVVQPGRSLRLSCAASGFTFRSYVMHWVRQAPGKGLEWVAVISHEGSLKYYADSVKGRFTISRDNSKNTLYLQMNSLRAEDTAVYYCARPRIAARRGGFGYWGQGTLVTVSS
VL: NFMLTQPHSVSESPGKTVTISCTRSSGNIDNNYVQWYQQRPGSSPTTVIYEDNQRPSGVPDRFSGSIDSSSNSASLTISGLKTEDEADYYCQSYDYDTQGVVFGGGTKLTVL
notes: Human Fab; also called SR-AB42 Fab; LTBP-SR-AB42 HuFab
T1/2 Binding [7]: 102 min | Kd [8]: 0.57 nM | T1/2 Binding [8]: 102 min | Kd [9]: 0.6 nM | T1/2 Binding [9]: 66 min | Kd [10]: 0.68 nM | T1/2 Binding [10]: 72 min | Kd [11]: 144 nM | T1/2 Binding [11]: 1.9 min | Kd [12]: 134 nM | T1/2 Binding [12]: 4.3 min | Kd [13]: 29 nM | T1/2 Binding [13]: 5.1 min | Kd [14]: 110 nM | T1/2 Binding [14]: 7.4 min | Kd [1]: 0.35 nM | koff [1]: 0.000142 s⁻¹ | kon [1]: 405000 M⁻¹ s⁻¹ | Kd [15]: 0.194 nM | koff [15]: 0.000105 s⁻¹ | kon [15]: 543000 M⁻¹ s⁻¹ | Kd [16]: 2.66 nM | Kd [17]: 0.381 nM | Kd [18]: 0.57 nM | Kd [19]: 0.611 nM | Kd [20]: 0.68 nM | Kd [21]: 145 nM | Kd [22]: 134 nM | Kd [23]: 29.1 nM | Kd [24]: 110 nM | Kd [3]: 38.9 nM | koff [3]: 0.00604 s⁻¹ | kon [3]: 155000 M⁻¹ s⁻¹ | Kd [4]: 43.6 nM | koff [4]: 0.00353 s⁻¹ | kon [4]: 80900 M⁻¹ s⁻¹
